Source: patent US20190048089A1 (Janssen / Centocor, published 2019)
Where a chain is given by its changes, count along the chain named.

T1: cyno CD40 on cyno spleen B cells (Macaca fascicularis (cynomolgus), UniProt P25942 21-277 (human entry))
T1 chain: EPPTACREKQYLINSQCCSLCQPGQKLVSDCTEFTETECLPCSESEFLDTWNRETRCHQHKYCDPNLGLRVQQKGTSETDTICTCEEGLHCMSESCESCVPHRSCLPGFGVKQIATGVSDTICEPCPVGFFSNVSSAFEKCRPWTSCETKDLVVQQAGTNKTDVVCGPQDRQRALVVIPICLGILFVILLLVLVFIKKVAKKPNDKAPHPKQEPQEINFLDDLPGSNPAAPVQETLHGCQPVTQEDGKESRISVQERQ

B1: C40B16 (antibody, human IgG1, lambda, V domains shown)
VH: EVQLVESGGGLVQPGGSLRLSCAASGFTFSSYAMSWVRQAPGRGLEWVSTINNSGGGTYYADSVKGRFTISRDNSKNTLYLHMNSLRAEDTAVYYCAKEGGKYYYYAMDVWGQGTTVTVSS
VL: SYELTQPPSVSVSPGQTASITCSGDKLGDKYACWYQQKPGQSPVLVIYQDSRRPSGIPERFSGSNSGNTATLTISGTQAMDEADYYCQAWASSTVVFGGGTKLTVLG
notes: Wild-type IgG1, lambda light chain; also called parental C40B16
B2: C40B124 (antibody, human IgG1, lambda)
heavy: EVQLVESGGGLVQPGGSLRLSCAASGFTFSSYAMSWVRQAPGKGLEWVSTIDNAGGGTYYADSVKGRFTISRDNSKNTLYLQMNSLRAEDTAVYYCAKEGGKYYYYAMDVWGQGTTVTVSSASTKGPSVFPLAPSSKSTSGGTAALGCLVKDYFPEPVTVSWNSGALTSGVHTFPAVLQSSGLYSLSSVVTVPSSSLGTQTYICNVNHKPSNTKVDKKVEPKSCDKTHTCPPCPAPEAAGASSVFLFPPKPKDTLMISRTPEVTCVVVDVSAEDPEVKFNWYVDGVEVHNAKTKPREEQYNSTYRVVSVLTVLHQDWLNGKEYKCKVSNKALPSSIEKTISKAKGQPREPQVYTLPPSREEMTKNQVSLTCLVKGFYPSDIAVEWESNGQPENNYKTTPPVLDSDGSFFLYSKLTVDKSRWQQGNVFSCSVMHEALHNHYTQKSLSLSPGK
light: SYELTQPPSVSVSPGQTASITCSGDKLGDKYAAWYQQKPGQSPVLVIYQDSRRPSGIPERFSGSNSGNTATLTISGTQAMDEADYYCQAWASSTVVFGGGTKLTVLGQPKAAPSVTLFPPSSEELQANKATLVCLISDFYPGAVTVAWKADSSPVKAGVETTTPSKQSNNKYAASSYLSLTPEQWKSHRSYSCQVTHEGSTVEKTVAPTECS
notes: IgG1sigma
B3: C40B125 (antibody, human IgG1, lambda)
heavy: B2 heavy with D52Q
light: B2 light
notes: IgG1sigma
B4: C40B127 (antibody, human IgG1, lambda)
heavy: B2 heavy with D52N, N53Q
light: B2 light
notes: IgG1sigma
B5: C40B138 (antibody, human IgG4 S228P, lambda, F234A L235A)
heavy: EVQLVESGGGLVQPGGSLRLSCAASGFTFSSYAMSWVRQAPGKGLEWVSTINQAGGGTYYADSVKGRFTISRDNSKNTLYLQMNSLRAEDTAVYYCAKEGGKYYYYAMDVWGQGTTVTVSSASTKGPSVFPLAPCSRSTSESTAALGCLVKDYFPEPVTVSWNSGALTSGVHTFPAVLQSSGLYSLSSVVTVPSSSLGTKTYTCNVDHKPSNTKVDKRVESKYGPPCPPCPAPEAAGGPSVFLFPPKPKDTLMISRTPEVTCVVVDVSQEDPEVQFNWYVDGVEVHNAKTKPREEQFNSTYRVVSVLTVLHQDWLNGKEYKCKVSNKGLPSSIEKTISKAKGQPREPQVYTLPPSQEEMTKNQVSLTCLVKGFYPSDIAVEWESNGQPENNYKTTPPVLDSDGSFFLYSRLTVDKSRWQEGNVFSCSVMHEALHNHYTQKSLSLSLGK
light: B2 light
notes: IgG4PAA
B6: C40B131 (antibody, human IgG4 S228P, lambda, F234A L235A, V domains shown)
VH: B1 VH with R43K, N53A, S54A, H82Q
VL: SYELTQPPSVSVSPGQTASITCSGDKLGDKYAAWYQQKPGQSPVLVIYQDSRRPSGIPERFSGSNSGNTATLTISGTQAMDEADYYCQAWASSTVVFGGGTKLTVLG
notes: IgG4PAA
B7: C40B135 (antibody, human IgG4 S228P, lambda, F234A L235A)
heavy: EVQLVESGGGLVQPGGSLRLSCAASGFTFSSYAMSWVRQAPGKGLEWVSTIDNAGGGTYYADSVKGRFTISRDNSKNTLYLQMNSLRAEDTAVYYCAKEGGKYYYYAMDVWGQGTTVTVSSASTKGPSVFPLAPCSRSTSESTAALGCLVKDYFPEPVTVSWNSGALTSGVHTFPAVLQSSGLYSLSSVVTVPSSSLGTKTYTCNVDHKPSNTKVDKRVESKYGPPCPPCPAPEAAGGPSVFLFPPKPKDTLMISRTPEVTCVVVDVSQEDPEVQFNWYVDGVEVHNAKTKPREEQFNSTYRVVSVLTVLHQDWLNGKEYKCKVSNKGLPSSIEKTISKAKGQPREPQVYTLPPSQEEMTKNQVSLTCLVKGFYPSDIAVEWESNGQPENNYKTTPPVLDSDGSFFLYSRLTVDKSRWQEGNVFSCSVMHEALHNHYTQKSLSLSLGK
light: B2 light
notes: IgG4PAA
B8: C40B136 (antibody, human IgG4 S228P, lambda, F234A L235A)
heavy: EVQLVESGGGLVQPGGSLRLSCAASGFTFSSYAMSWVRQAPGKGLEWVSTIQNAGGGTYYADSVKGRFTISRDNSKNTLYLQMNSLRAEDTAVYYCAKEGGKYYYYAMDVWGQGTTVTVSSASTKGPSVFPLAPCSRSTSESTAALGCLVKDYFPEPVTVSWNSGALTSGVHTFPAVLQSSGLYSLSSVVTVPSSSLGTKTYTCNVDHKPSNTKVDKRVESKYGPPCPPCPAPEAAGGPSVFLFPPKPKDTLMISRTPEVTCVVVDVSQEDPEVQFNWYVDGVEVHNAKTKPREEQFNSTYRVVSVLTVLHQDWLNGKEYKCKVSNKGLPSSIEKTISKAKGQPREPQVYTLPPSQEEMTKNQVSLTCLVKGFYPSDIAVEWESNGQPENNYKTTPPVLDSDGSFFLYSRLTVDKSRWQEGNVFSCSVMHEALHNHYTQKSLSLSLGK
light: B2 light
notes: IgG4PAA
B9: C40B180 (antibody, human IgG4 S228P, lambda, F234A L235A)
heavy: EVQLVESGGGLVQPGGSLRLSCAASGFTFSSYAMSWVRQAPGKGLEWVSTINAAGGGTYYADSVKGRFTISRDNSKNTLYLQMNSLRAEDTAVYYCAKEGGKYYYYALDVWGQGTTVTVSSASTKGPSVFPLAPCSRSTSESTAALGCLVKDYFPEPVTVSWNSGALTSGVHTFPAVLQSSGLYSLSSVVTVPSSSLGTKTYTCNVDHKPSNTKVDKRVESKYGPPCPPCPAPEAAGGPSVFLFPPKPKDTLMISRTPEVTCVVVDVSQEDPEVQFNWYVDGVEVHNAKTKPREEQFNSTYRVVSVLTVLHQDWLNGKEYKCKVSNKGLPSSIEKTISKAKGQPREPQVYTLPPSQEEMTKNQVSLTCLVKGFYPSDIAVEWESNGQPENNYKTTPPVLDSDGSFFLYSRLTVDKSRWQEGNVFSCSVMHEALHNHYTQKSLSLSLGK
light: B2 light
notes: IgG4PAA
B10: C40B183 (antibody, human IgG4 S228P, lambda, F234A L235A)
heavy: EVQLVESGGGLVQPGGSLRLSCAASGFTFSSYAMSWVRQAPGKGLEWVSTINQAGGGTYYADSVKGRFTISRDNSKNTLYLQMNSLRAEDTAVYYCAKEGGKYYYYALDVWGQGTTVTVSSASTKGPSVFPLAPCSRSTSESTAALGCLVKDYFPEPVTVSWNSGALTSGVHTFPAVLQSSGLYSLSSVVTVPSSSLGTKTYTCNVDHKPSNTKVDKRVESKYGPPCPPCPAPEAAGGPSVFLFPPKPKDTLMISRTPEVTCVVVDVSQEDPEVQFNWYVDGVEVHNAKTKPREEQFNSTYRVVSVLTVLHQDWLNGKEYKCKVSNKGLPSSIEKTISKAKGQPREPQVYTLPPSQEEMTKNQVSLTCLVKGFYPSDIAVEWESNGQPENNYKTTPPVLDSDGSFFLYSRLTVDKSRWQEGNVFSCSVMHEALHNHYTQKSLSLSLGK
light: B2 light
notes: IgG4PAA
B11: C40B179 (antibody, human IgG1, lambda)
heavy: B2 heavy with D52N, N53Q, M108L
light: B2 light
notes: IgG1sigma

Legend:
[1] = biological target: T2, human CD40 (analyte in SPR) (human, UniProt P25942 21-193); assay: SPR, ProteOn XPR36, mAb captured on anti-human IgG Fc, CD40 as analyte, 25 C, 1:1 Langmuir
T2 construct: also called huCD40
Method: Affinity of the antibodies to human CD40 was assessed using Surface Plasmon Resonance (SPR) using a ProteOn XPR36 system (BioRad). […] Approximately 5000 RU (response units) of mAbs were immobilized. The kinetic experiments were performed at 25° C. in running buffer (DPBS+0.01% P20+100 μg/ml BSA). To perform kinetic experiments, 200 RU of mAbs were captured followed by injections of analytes (human or cyno CD40) at 5 concentrations (in a 4-fold serial dilution). The association phase was monitored for 3 minutes at 50 μL/min, then followed by 15 minutes of buffer flow (dissociation phase). The chip surface was regenerated with two 18 second pulses of 100 mM H₃PO₄ (Sigma, Cat#7961) at 100 μL/min.
The collected data were processed using ProteOn Manager software. First, the data was corrected for background using inter-spots. Then, double reference subtraction of the data was performed by using the buffer injection for analyte injections. The kinetic analysis of the data was performed using a Langmuir 1:1 binding model. The results were reported in the format of Ka (On-rate), Kd (Off-rate) and KD (equilibrium dissociation constant).

[2] = biological target: T3, human CD40 on cells (human tonsillar B cells, human dendritic cells, HEK-Blue CD40L cells) (human, UniProt P25942 21-277); assay: cell-based or functional assay
[3] = biological target: T3, human CD40 on cells (human tonsillar B …); assay: cell-based or functional assay; remark: listed apart in the source
[4] = biological target: T1, cyno CD40 on cyno spleen B cells; assay: cell-based or functional assay
[5] = biological target: T2, human CD40 (analyte in SPR); assay: affinity in benchmark table; method not restated (SPR ProteOn of Example 3 presumed)

Binder | Kd [1] [pM] | koff [1] [s⁻¹] | kon [1] [M⁻¹ s⁻¹] | IC50, mCD40L-driven human B-cell proliferation [2] [pM] | IC50, mCD40L-driven DC IL-12p40 production [3] [pM] | IC50, sCD40L-driven DC IL-12p40 production [3] [pM] | IC50, sCD40L-driven human B-cell proliferation [2] [pM] | IC50, sCD40L-driven cyno B-cell proliferation [4] [pM] | Kd [5] [pM]
B1 | 36.8 | 0.000157 | 4.27e+06 |  |  |  |  |  | 
B2 | 41.6 | 9.56e-05 | 2.3e+06 | 118 | 507 | 387 |  |  | 
B3 | 34.9 | 0.000136 | 3.89e+06 | 128 | 393 | 244 | 88 | 83 | 
B4 | 30.3 | 0.000115 | 3.79e+06 | 111 | 383 | 270 | 73 | 66 | 
B5 | 59.9 | 0.000215 | 3.58e+06 | 106 | 341 | 262 | 48 | 75 | 
B6 | 81.2 | 0.000286 | 3.52e+06 | 99 | 323 | 330 |  |  | 
B7 | 49.6 | 0.000145 | 2.93e+06 | 131 | 430 | 329 | 56 | 77 | 
B8 | 34.3 | 0.000113 | 3.3e+06 | 122 | 379 | 246 | 87 | 65 | 
B9 | 137 | 0.000366 | 2.67e+06 | 136 | 222 | 225 | 92 | 109 | 59.9
B10 | 121 | 0.00035 | 2.91e+06 | 140 | 291 | 208 | 103 | 110 | 107
B11 | 93.3 | 0.000267 | 2.86e+06 | 178 | 297 | 184 | 132 | 119 | 34.3
